Test results from patent US20180305409A1 (SHAANXI MICOT TECHNOLOGY, published 2018).
Bridge positions count the residues as written; N and C are the ends. Square brackets hold non-standard residues; d marks the D form. Ends that are not written are not given here. hArg = N=C(N)NCCCC[C@H](N)C(=O)O

B1: polypeptide 2 (peptide)
peptide: [dF]PRPGGGGNGRFEEIPEEYLEAAAKC[hArg]GDWPC
modifications: disulfide 26-32
B2: polypeptide 3 (peptide)
peptide: FPRPGGGGNGDFEEIPEEYLCXGDWPC
modifications: D-Phe at position 1 (N-terminal); Har (homoarginine) at position 22; disulfide bond between the two Cys (21 and 27)

Legend:
[1] = molecular target: human thrombin (human, UniProt P00734 328-622); experiment: cell-based or functional assay
[2] = molecular target: platelet GPIIb/IIIa receptor (human, UniProt P08514 32-1039; P05106 27-788); experiment: cell-based or functional assay
platelet GPIIb/IIIa receptor, sequence (P08514 32-1039, chain 1 of 2): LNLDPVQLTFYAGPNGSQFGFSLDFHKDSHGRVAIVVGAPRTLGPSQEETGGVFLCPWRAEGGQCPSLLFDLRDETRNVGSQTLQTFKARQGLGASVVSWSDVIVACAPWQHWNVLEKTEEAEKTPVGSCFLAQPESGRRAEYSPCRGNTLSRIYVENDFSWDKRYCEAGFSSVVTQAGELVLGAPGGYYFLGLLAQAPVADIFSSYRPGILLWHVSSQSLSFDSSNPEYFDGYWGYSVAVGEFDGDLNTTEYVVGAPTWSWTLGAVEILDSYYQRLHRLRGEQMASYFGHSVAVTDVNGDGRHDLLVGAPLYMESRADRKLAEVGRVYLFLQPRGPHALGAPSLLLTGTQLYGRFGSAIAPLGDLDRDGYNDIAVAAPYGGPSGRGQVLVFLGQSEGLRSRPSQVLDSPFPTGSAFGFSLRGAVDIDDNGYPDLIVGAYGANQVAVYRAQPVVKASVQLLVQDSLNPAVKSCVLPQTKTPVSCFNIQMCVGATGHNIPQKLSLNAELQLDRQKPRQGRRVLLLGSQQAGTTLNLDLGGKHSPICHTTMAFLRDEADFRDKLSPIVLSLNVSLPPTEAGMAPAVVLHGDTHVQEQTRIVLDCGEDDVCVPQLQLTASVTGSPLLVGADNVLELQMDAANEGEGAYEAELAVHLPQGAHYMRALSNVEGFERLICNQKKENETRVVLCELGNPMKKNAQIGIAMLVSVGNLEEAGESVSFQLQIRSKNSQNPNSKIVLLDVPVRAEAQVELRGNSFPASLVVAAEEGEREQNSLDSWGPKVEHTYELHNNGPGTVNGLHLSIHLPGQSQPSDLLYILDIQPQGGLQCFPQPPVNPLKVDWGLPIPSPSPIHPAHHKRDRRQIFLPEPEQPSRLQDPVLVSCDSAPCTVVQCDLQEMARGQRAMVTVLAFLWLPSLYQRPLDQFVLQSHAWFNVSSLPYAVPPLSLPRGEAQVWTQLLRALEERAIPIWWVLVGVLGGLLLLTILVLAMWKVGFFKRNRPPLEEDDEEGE
platelet GPIIb/IIIa receptor, sequence (P05106 27-788, chain 2 of 2): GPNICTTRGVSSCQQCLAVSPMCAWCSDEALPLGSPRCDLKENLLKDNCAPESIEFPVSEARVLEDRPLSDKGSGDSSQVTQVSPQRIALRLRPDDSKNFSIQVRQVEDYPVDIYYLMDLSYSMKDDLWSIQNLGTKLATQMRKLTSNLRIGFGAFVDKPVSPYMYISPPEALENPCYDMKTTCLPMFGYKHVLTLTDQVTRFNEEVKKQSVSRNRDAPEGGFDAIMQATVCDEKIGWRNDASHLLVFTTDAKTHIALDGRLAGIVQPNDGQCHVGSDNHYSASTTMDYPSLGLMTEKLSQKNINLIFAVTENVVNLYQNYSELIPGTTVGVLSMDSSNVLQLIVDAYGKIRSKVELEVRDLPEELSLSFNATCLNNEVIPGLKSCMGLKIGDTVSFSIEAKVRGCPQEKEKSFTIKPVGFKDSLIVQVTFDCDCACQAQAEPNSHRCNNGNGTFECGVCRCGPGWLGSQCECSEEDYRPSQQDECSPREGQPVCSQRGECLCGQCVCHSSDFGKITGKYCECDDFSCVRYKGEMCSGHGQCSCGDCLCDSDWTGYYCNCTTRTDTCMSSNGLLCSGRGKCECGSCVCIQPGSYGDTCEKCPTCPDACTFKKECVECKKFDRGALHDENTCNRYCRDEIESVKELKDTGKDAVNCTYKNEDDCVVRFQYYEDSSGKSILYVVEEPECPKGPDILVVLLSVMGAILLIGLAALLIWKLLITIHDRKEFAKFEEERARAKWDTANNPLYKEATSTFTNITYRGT

| Binder | APTT(S), human platelet poor plasma in vitro, 1 × 10^-6 mol/L (saline 33.10) [1] [s] | Fold of Prolongation in APTT, 1 × 10^-6 mol/L [1] [fold] | Fold of Prolongation in PT, 1 × 10^-6 mol/L [1] [fold] | PT(S), human platelet poor plasma in vitro, 1 × 10^-6 mol/L (saline 11.22) [1] [s] | TT(S), human platelet poor plasma in vitro, 1 × 10^-6 mol/L (saline 14.07) [1] [s] | Inhibitory rate of platelet aggregation (%), ADP-induced human platelet aggregation in vitro, 1 × 10-5 mol/L [2] [%] | Inhibitory rate of platelet aggregation (%), ADP-induced human platelet aggregation in vitro, 3 × 10-6 mol/L [2] [%] | Platelet aggregation rate (%), ADP-induced human platelet aggregation in vitro, 1 × 10-5 mol/L (saline 73.39) [2] [%] | Platelet aggregation rate (%), ADP-induced human platelet aggregation in vitro, 3 × 10-6 mol/L (saline 73.39) [2] [%] |
| --- | --- | --- | --- | --- | --- | --- | --- | --- | --- |
| B1 | 104 | 3.35 | 3.04 | 34.8 | > 180 | 100 | 66.7 | 0 | 26.1 |
| B2 | 102 | 2.94 | 2.14 | 25.7 | > 180 | 47.1 | 26.4 | 35.4 | 57.9 |
